For one data set, the target named is OTLD1-RFP (Arabidopsis). The data set is described as follows: FRET or BRET; acceptor photobleaching FRET (AB-FRET): GFP donor, RFP acceptor, transiently co-expressed in N. benthamiana leaves; %AB-FRET = percent increase in GFP emission after RFP photobleaching, cell nucleus, n = 13 cells.
The next data set addresses T1, GST-LSH10 (Arabidopsis, UniProt Q9S7R3 1-177).
T1 sequence: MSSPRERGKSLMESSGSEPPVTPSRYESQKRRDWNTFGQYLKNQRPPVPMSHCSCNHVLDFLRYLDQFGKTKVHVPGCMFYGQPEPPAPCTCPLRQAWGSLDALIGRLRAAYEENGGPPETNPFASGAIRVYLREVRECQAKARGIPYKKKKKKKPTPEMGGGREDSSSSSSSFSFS
The experiment in a line: EMSA; poly dI.dC; reduced by 300x unlabeled probe; 100 mM Tris, 500 mM KCl, 10 mM DTT, pH 7.5 (as printed binding buffer), 1 ug dI.dC, 10 ng probe, 1 ug protein, room temperature 20 min, 6% native PAGE. The conditions noted are these: protein: recombinant, tags: N-terminal GST (pGEX-5X-1), label: biotin (labeled probe).

OTLD1-RFP (Arabidopsis), sequence (F4IFS7 whole entry): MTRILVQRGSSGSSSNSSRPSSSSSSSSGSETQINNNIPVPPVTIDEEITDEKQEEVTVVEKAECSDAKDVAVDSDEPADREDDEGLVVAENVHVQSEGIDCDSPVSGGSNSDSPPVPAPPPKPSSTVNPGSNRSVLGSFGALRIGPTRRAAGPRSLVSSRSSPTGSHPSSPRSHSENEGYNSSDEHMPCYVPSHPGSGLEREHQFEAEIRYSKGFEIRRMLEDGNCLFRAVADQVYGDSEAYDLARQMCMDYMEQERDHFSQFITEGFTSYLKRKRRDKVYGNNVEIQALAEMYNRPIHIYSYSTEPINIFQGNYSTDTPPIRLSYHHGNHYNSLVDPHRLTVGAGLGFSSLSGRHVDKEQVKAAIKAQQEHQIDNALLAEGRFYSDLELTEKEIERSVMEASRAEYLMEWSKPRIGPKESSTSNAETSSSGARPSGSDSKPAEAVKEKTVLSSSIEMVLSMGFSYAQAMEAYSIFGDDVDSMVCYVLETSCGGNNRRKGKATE

B1: LSH10-GFP (natural protein)
chain: MSSPRERGKSLMESSGSEPPVTPSRYESQKRRDWNTFGQYLKNQRPPVPMSHCSCNHVLDFLRYLDQFGKTKVHVPGCMFYGQPEPPAPCTCPLRQAWGSLDALIGRLRAAYEENGGPPETNPFASGAIRVYLREVRECQAKARGIPYKKKKKKKPTPEMGGGREDSSSSSSSFSFS
Molecule B1 showed a %AB-FRET (increase in the donor fluorescence) with OTLD1-RFP (Arabidopsis) of 13%.

B2: probe e (WUS) (dsDNA)
DNA 1: ATTTACCGTTAACTTTGTGAACAAAAGTCGAATCAAACACAC
DNA 2: GTGTGTTTGATTCGACTTTTGTTCACAAAGTTAACGGTAAAT
For B2, the binding result in the data set with GST-LSH10 was “binds”.

B3: probe a (OSR2) (dsDNA)
DNA 1: TAATATAAATTGCGTTTTGTTTTCCAGATATCAA
DNA 2: TTGATATCTGGAAAACAAAACGCAATTTATATTA
For the molecule B3, the binding result in the data set with GST-LSH10 is given as “binds”.

B4: probe h (ARL) (dsDNA)
DNA 1: TCAGAGAAAGTGTCTAGGGGAGAAGAACCACTGTGATTG
DNA 2: CAATCACAGTGGTTCTTCTCCCCTAGACACTTTCTCTGA
For the molecule B4, the binding result with GST-LSH10 was “binds”.

B5: probe d (WUS) (dsDNA)
DNA 1: TATATATATATAATCTTCTCTCTCACACAAAACCTAAAA
DNA 2: TTTTAGGTTTTGTGTGAGAGAGAAGATTATATATATATA
For the molecule B5, the binding result with GST-LSH10 was “binds”.

B6: probe b (OSR2) (dsDNA)
DNA 1: CTGTAACGTCTTTCTCTTCACACACATAAAAAAG
DNA 2: CTTTTTTATGTGTGTGAGAGAGAAAGACGTTACAG
For the molecule B6, the binding result with GST-LSH10 (internal mismatch/bulge as printed) is “binds”.

B7: probe c (WUS) (dsDNA)
DNA 1: TTTTAGAATTTTTGTTTTGTTTTCTGTGTGTATG
DNA 2: CATACACACAGAAAACAAAACAAAAATTCTAAAA
Take B7: in the data set with GST-LSH10, the binding result is “binds”.

B8: probe g (ABI5) (dsDNA)
DNA 1: ACAAGAAGCGGATTCTCTCAGTTTTCCGGCGGCGGAGGAACA
DNA 2: TGTTCCTCCGCCGCCGGAAAACTGAGAGAATCCGCTTCTTGT
Take B8: in the data set with GST-LSH10, the binding result is “binds”.

B9: probe f (ABI5) (dsDNA)
DNA 1: GCTTTTAAACTATGTGAAGGAGGAGAACCTCCATAACAA
DNA 2: TTGTTATGGAGGTTCTCCTCCTTCACATAGTTTAAAAGC
For the molecule B9, the binding result with GST-LSH10 is “binds”.

The record behind these values is article PMC9845307, “Arabidopsis LSH10 transcription factor and OTLD1 histone deubiquitinase interact and transcriptionally regulate the same target genes”.
